Legend:
[1] = test system: C57BL6/J mice; assay: Inflammatory markers in liver, kidney and muscle of old mice (QPCR); type: in vivo, mouse; settings: 40 mg/kg once every three weeks, vs IgG
Description: FIG. 52. A neutralizing IL-11 antibody reduces multiple markers of inflammation in kidneys of old mice. Wild-type C57BL6/J mice were treated with an intra-peritoneal injection of anti-IL11 (X203; 40 mg/kg, once every three weeks) or an isotype IgG control (11E10, 40 mg/kg, once every three weeks) from 55 weeks of age until 110 weeks of age. 110 week-old mice were sacrificed and organs harvested, snap frozen and RNA extracted using standard procedures. Samples were analyzed by quantitative RT-PCR (QPCR) using primers specific for Ccl2, Ccl5, Tnfα, Il1β, Il11, Il6 or Gapdh.
FIG. 53. A neutralizing IL-11 antibody reduces multiple markers of inflammation in livers of old mice. Wild-type C57BL6/J mice were treated with an intra-peritoneal injection of anti-IL11 (X203; 40 mg/kg, once every three weeks) or an isotype IgG control (11E10, 40 mg/kg, once every three weeks) from 55 weeks of age until 110 weeks of age. 110 week-old mice were sacrificed and organs harvested, snap frozen and RNA extracted using standard procedures. Samples were analyzed by quantitative RT-PCR (QPCR) using primers specific for Ccl2, Ccl5, Tnfα, Il1β, Il11, Il6 or Gapdh.
FIG. 54. A neutralizing IL-11 antibody reduces multiple markers of inflammation in skeletal muscle (soleus) of old mice. Wild-type C57BL6/J mice were treated with an intra-peritoneal injection of anti-IL11 (X203; 40 mg/kg, once every three weeks) or an isotype IgG control (11E10, 40 mg/kg, once every three weeks) from 55 weeks of age until 110 weeks of age. 110 week-old mice were sacrificed, and organs harvested, snap frozen and RNA extracted using standard procedures. Samples were analyzed by quantitative RT-PCR (QPCR) using primers specific for Ccl2, Ccl5, Tnfα, Il1β, Il11, Il6 or Gapdh. […]
Total RNA was extracted from AML12 or snap-frozen tissues using Trizol (Invitrogen) and RNeasy Mini Kit (Qiagen). […] Expression data were normalized to GAPDH mRNA expression and fold change was calculated using 2^−ΔΔct method.

[2] = test system: C57Bl/6J mice; assay: Body-composition assessment via echo MRI; type: in vivo, mouse; settings: baseline age 55 weeks vs 108-109 weeks, vs IgG control
Description: From age 55 weeks (human equivalent of ˜45 years old (i.e. middle age)) to age 110 weeks (human equivalent of ˜75 years old), mice were administered with 40 mg/kg of either X203 or isotype-matched control IgG via intra-peritoneal injection every 3 weeks.
Mice also underwent body-composition assessment via echo MRI both at baseline (age 55 weeks) and at 108-109 weeks. This enabled calculation of the change in body fat mass and lean (muscle) mass in the X203 and IgG control treatment groups. Gastrocnemius and soleus muscles were also harvested from the mice at age 110 weeks and their weights were recorded. Data were analysed by 2-way ANOVA.
End-point total body fat and lean mass measurements were performed 2 days prior to sacrifice by EchoMRI analysis using 4in1 Body Composition Analyzer for Live Small Animal.

B1: X203: mouse anti-mouse IL-11 IgG antagonist antibody; VH SEQ ID NO:22, VL SEQ ID NO:23 (antibody, V domains shown)
VH: EVQLQQSGPELVKPGASVKIPCKASGYTFTDYNMDWVKQSHGKSLEWIGDINPHNGGPIYNQKFTGKATLTVDKSSSTAYMELRSLTSEDTAVYYCARGELGHWYFDVWGTGTTVTVSS
VL: DIVLTQSPASLAVSLGQRATISCRASKSVSTSGYSYIHWYQQKPGQPPKLLIYLASNLDSGVPARFSGSGSGTDFTLNIHPVEEEDAATYYCQHSRDLPPTFGGGTKLEIK
- markers of inflammation (CCL2, CCL5, TNFa, IL-1 b, IL-11 and IL-6) in kidney [1]: reduces
- markers of inflammation (CCL2, CCL5, TNFa, IL-1 b, IL-11 and IL-6) in liver [1]: reduces
- markers of inflammation (CCL2, CCL5, TNFa, IL-1 b, IL-11 and IL-6) in skeletal muscle [1]: reduces
- fat mass gained (change in body fat mass) [2]: significantly less
- lean mass [2]: significantly greater
